# B1: B1R (protein)
# chain: MASSWPPLELQSSNQSQLFPQNATACDNAPEAWDLLHRVLPTFIISICFFGLLGNLFVLLVFLLPRRQLNVAEIYLANLAASDLVFVLGLPFWAENIWNQFNWPFGALLCRVINGVIKANLFISIFLVVAISQDRYRVLVHPMASRRQQRRRQARVTCVLIWVVGGLLSIPTFLLRSIQAVPDLNITACILLLPHEAWHFARIVELNILGFLLPLAAIVFFNYHILASLRTREEVSRTRCGGRKDSKTTALILTLVVAFLVCWAPYHFFAFLEFLFQVQAVRGCFWEDFIDLGLQLANFFAFTNSSLNPVIYVFVGRLFRTKVWELYKQCTPKSLAPISSSHRKEIFQLFWRN
# Target: LysdesArg9BK (Homo sapiens, 3H label on peptide)
# Assay: radioligand binding on HEK293 cells
binder,measurement,value
B1,Kd,1.3 nM
